According to the supplement of paper PMC7125110:
± gives the standard error. Fewer inactive variants are shown than the library holds.

B1: glmS ribozyme (parent)
chain: AUAAAAGCGCCAGAACUACAGAAAUGUAGUUGACGAGGAGGAGGUUUAUCGAAUUUUCGGCGGAUGCCUCCAAA

Legend:
Conditions in all cases: with glucosamine-6-phosphate
glucosamine-6-phosphate [1] = variants of: B1; test: self-cleavage kobs at 640 uM GlcN6P; higher = faster cleavage; RNA array
Summary of the method: (§1)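 A hybridised Cy3 probe tracked barcoded ribozyme variants, transcribed in situ by E. coli RNA polymerase on sequenced MiSeq chips, at 37 °C. The variants received 40 μM to 10 mM glucosamine-6-phosphate in HEPES/KCl/Mg(OAc)2 buffer. kobs came from decay fits and kcat and KM from weighted Michaelis–Menten fits.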

glucosamine-6-phosphate [2] = variants of: B1; test: self-cleavage kobs at 2500 uM GlcN6P; higher = faster cleavage; RNA array
Summary of the method: as §1

glucosamine-6-phosphate [3] = variants of: B1; test: self-cleavage kobs at 10000 uM GlcN6P; higher = faster cleavage; RNA array
Summary of the method: as §1

Variant | self-cleavage kobs at 640 uM GlcN6P (glucosamine-6-phosphate [1]) [s⁻¹] | self-cleavage kobs at 2500 uM GlcN6P (glucosamine-6-phosphate [2]) [s⁻¹] | self-cleavage kobs at 10000 uM GlcN6P (glucosamine-6-phosphate [3]) [s⁻¹]
C16A A36U A42G A48G G51U U54G | < 1e-05 | < 1e-05 | –
G13U C16U A33C C68U | < 1e-05 | – | –
A15C C16G G43U U56C A64U C68A | < 1e-05 | – | –
A12C U30A G35A | < 1e-05 | < 1e-05 | < 1e-05
G13U G40A G43C U49C C68G | < 1e-05 | – | –
A12G G43A U46G U69G | < 1e-05 | < 1e-05 | –
G13U U30A A53G | 5.33e-05 ± 1.9e-05 | – | 4.23e-05 ± 1.5e-05
G13A U54C C70U | 9.94e-05 ± 2.2e-05 | 0.000291 ± 9.6e-05 | –
A12U U65C C70U | 0.000322 ± 8.6e-05 | – | –
A12U U30A G38U | < 1e-05 | – | –
A14C C16U G44U U69G | < 1e-05 | – | –
A12U A48C | 0.000142 ± 2.1e-05 | 0.000341 ± 5.1e-05 | –
A12G G29U G37C | < 1e-05 | < 1e-05 | –
A14C A36C G51U C61A G63U C67U | 8.43e-05 ± 3.9e-05 | 5.16e-05 ± 1.9e-05 | –
A15U G41C G44U A48U U49A G51U C67U | < 1e-05 | – | –
A12C U47C G60U | < 1e-05 | – | –
A12U A15G G41A C61A | < 1e-05 | – | –
A15U G35A C68U | < 1e-05 | < 1e-05 | –

Variant | self-cleavage kobs at 640 uM GlcN6P (glucosamine-6-phosphate [1]) [s⁻¹] | self-cleavage kobs at 2500 uM GlcN6P (glucosamine-6-phosphate [2]) [s⁻¹] | self-cleavage kobs at 10000 uM GlcN6P (glucosamine-6-phosphate [3]) [s⁻¹]
U17G G62U | < 1e-05 | – | –
A12G A36U | < 1e-05 | – | –
A18C U56C U65G | 5.82e-05 ± 2.6e-05 | 0.000131 ± 6.1e-05 | –
A15G G29U U55G A64G | 0.000144 ± 2.7e-05 | – | –
G13A C16G A36C G41U A52U | < 1e-05 | – | –
A12C G26A G51U A53G C68G | 0.000191 ± 5.2e-05 | 0.000139 ± 4.6e-05 | –
A15G U45C U57C | < 1e-05 | – | –
C19A U30A | 0.000125 ± 2.9e-05 | 0.000235 ± 4.3e-05 | –
A15C G35U G41A U65C C68A | < 1e-05 | < 1e-05 | –
A15U U45C G66U C67G | 7.69e-05 ± 2.9e-05 | 0.000193 ± 5.8e-05 | –
A15U C16A C71U | 0.000111 ± 3.7e-05 | 0.000598 ± 0.00019 | –
G13A A14C A42G C70U | 4.53e-05 ± 1.8e-05 | 9.61e-05 ± 1.4e-05 | –
A14C G35U C61A | < 1e-05 | – | –
A15G G38U G59C | < 1e-05 | – | –
A15U U46G A53U C67U | 6.64e-05 ± 1.4e-05 | – | –
G13U U31C G41A | < 1e-05 | – | –
A14U A15G A64C | < 1e-05 | – | –
A14C U69C C71U | 4.76e-05 ± 8.5e-06 | 0.000131 ± 1.4e-05 | –
